For one substance, activity (fold reduction in colony count) results are on record in patent publication US20230287457.

For this series, the system named is Nla type I-C Cascade + Cas3 expressed in E. coli (Neisseria lactamica). In words: cell_activity. To be noted: PAM 5'-TTC; E. coli plasmid interference.

Regarding “native CRISPR spacer 1 crRNA ; spacer 1 target with 5'-TTC PAM”, the activity (fold reduction in colony count) worked out at 1000.
